Data reported in US20250288643A1.

Biological target: monkey CD47 on LLC-MK2 cells (rhesus monkey) (UniProt H9ERV1)
Experiment: flow cytometry, LLC-MK2 cells

Substance: Hu5F9-G4 (antibody)
- EC50 (read off the curve): 60 pM
